Test: label from the status in PepcDB records

Sequence	protein production
MDTKTKRGFWIGINYSKTNLSLITASAILSIAFYLIYYNTKKTVAAVLFLALAIGAAFFFIKPIVDRDNKKNDINSNIPFFITAFSSLVTSDANIIDVLILLSKKEKLGYLRVEIEKILNLVKNWGMGLAEAINFVAKKTPSDLFSDFLTRFSHAIDSGQDLEEFTRSEVFSTMNSFETAYVSALYSFDLYRDIYVSLLLSFAFLITFIMIMPILIPINVFSVLMLSLIMVALGEFMLVYGISIVLPKDPLWHRTGIKTDTDIKMRNLFLISGTFSMMIFIVIDVMKIMFRIPFYFSFALIVTPLAYPSYVGTKMEREVQKKDEMYGSFIRSLSGSASARGNLLIDALKAIVMHDFGILSKDVNKLYRRLLYRINSLKAWKMFSADTGSHLIEIYSETYAESIDLGADALKSGMVISENFEKIVGLRKRKHSSVTSFVGIMYGITAGLAFSLAISYGILKIIDGIFSSFNLSSLGMTGIFLSPPSSSIFLIEIFLLIILFVHSFIGGISLKVSDGGRIINGLHHTVLMIWIVSFVVYGTMYITTILLGSTVS	failed
MKPLEQAINDNKKKKRFNFRMPGAFMILFILTVVAVIATWIIPAGAYSKLSYEPSSQELKIVNPHHQVKKVPGTQKELDRLGVKIKIEQFKSGAINKPVSIPNTYERLKQHPAGLDQITSSMVKGTIEAVDIMVFILVLGGLIGVVQASGSFESGLLALTQKTKGHEFMLIAFVSILMIIGGTLCGIEEEAVAFYPVLVPIFIALGYDSIVSVGAIFLASSVGSTFSTINPFSVVIASNAAGTTFTDGLYWRIGACIIGAIFVISYLFWYCKKIKKDPKSSYSYEDKAAFEKQWSVLHDDGSSEFTLRKKIILTLFVLPFPIMVWGVMTQGWWFPVMASVFLIFTIIIMFIAGTGQYGLGEKGTVDAFVNGASSLVGVSLIIGLARGINLVLNKGMISDTILHFSSSIVQHMSGPLFIIVLLFIFFCLGFIVPSSSGLAVLSMPIFAPLADTVGIPRFVIVTTYQFGQYAMLFLAPTGLVMATLQMLNMRYSHWLRFVWPVVAFVLIFGGGLLITQVLIYS	failed
MTAPTLSRAAMEKVIRTYYDGCNEADEAKMIACFVPEAVHYFPAGMYGGAFRGAAQIAHRWRTAVETLGSYWTIDALVIDAETAEAAIEWTHFKTNQDKVLRGAECVEFDRASGLIREIRAFYASPQAEGIARLELGDFDYAGRGYRVTSPRKPA	not failed
MVQSAPASEIAALILRGFDDYREQFREITDGARARFEQAQWQEAQRASAQRINLYEEKVAETVAGLRAGLADSELLDVERWPIIKSAYIAQIDLRLDDELAETWFNSIFCGLFSHDNISDGTMFVHTTRPSLRAHARAPYTRTYRPGGDLRQALEKIFDDYRFDVPYDDRERDLERIDALLHSNLPDWVCKDPDLAIELIGSVFYRNKGAYLVGRLFTPDEQWPLVFPLLHREDHGIQFDTVITDEAEVSIIFSFTRSYFMVDVPVPAELVAFLKRLLPGKHLAELYTSIGFYKQGKSEFYRALINHLATTDDRFVMAPGVRGMVMSVFTLPGFNTVFKIIKDRFNPSKSVDHATVIQKYQLVKNHDRVGRLADTQQFADFRFPVSKFEPECLAELLEVAPSTVVMEGDVVLIRHCWTERRMTPLNIYLENASEAQTREALNDYGLAIKQLAAANIFPGDMLLKNFGVTRHGRVVFYDYDEICYLTEVNFRYIPEPRFPEDEMSSEPWYSVGPNDVFPEEFPRFLFVDLNQRRLFAKLHGNLYDAKYWQGLQEQIREGKVIDVFPYRRQETPEQLLG	failed
MLLYNKQKKNQNAKGNRILISVTVLGSAGPIRFVAYEDDLVASVIDTALKGYAREGRLPLLGSDFNDFLLYCPMVGPEALSTWDAIGSLGARNFMLCRKPEEKKVEESNGRSDSTINGARKGGSLKAWINKSFNLKVSSH	failed
MLPDDVNQADVLADVTAAFYRYEKALTGNDVAVLDELFWHDEKTVRYGAGENLYGIEEIRAFRLARPSAGLDRALRNTVITTYGHDMAVASTEFTRTGSTKIGRQMQTWVKMPEGWRIVAAHVSLMSE	not failed
HSFVVLVIGESARKHNYALYGYQKPTTPRLSKRLADNELTLFNATSCATYTTASLECILDSSFKNNAYENLPTYLTKAGIKVFWYSANDGEKNVKVTSYLKNYELIQKCPNCEAIAPYDESLLYNLPDLLKEHSNENVLLILHLAGSHGPNYDNKVPLNFRVFKPYCSSADLSSCSKESLINAYDNTIFYNDYLLDKIISMLENAKQPALMIYLSDHGESLGEEAFYLHGIPKSIAPKEQYEIPFIVYAN	failed
MADATRIPDSVTLPELTLRGVLLGALITVIFTASNVFLGLKVGLTFSSAIPAAVISMSVLRMFRDANILENNMVQTQASAAGTLSAIIFILPALVMMGHWQGFPFWQTLAICGAGGMLGVMFTIPLRHIMVVQSDLPYPEGVAAAEILRVGSAEAPDTAPGRRGASGMGDILAGGGVAALVSLATGGLRVLGDSFSWWGQLGASVFRLPMGFSLALLGAGYLIGIVAGVAMLVGLLIAWLVAVPVLTATTPMPDGQSISAFANSLWASQVRFIGAGVIGVGAIWTLATLFMPMVRGVRTSFAAFGRSGEAAYGSAPRTERDLPSRWISLITLALVAVLVGVFAAFLQPAVLSPGARWGLVAYAVVFAFVFGFLVAAACGYMAGLIGSSTSPISGVGIVAIVLVSLLMLAIQRGDGLLATPQGLQMGIALAIFTTSAVVAVASISNDNLQDLKTGWLVGATPWRQQVALLIGCVVGAAVISPVLELLYNAYGFGDALPRPGMDPSQALAAPQATLMLAIAQGIFTHQLNWTMILIGMGVGVALIVIDQVLRRTCRVARLPVLAVGIGIYLPPSASAPIVVGAVLAWLLEGALRRRAAAAGQDYERYAEGPNRRGVLVASGLIVGESLVGVLLAAVIGATGDEAPLAVVGAGFGPTAEWLGFVVFAAVAVWIYRRVVRTRPEQA	failed
MTQIARISDTGTERRLQAERLIGAKALQEAQALRFNVFSGEFNAKLKGAELGLDMDDYDVHCSHIGVRDLNTGRLVATTRLLDHQAANSLGRFYSEEEFSLHGLVQLKGPILEIGRTCVDPAYRNGGTIAVLWGELAEVLNQGGYSYLMGCASIPMQDGGVQAQAIMQRLRERYLCTEHLRAEPKNPLPSLDIPSNVIAEMPPLLKAYMRLGAKICGEPCWDEDFQVADVFILLKRDELCPRYARHFKAAV	failed
MIYLHAIDPIAFSLGPVQVHWYGLMYLAAFFSAWALGRSRILRGRLPGVDMDGFSDLLFYGMLGVVLGGRIGYMLFYAFETFLANPLILFKVWEGGMSFHGGLLGVLIACWLWARKHRLHFFDVMDFVAPLVPLGLGFGRLGNFVGGELWGKFTQAGWGVIFPHAPELADRLPAQIQAQYAAGALNQFARHPSQLYEAALEGVVMFVVLWTFSMKPRARYAVSGLFALLYGVFRFIVEFVRVPDAPIGYLAFNWLTMGQILSLPLVAVGLVLLAMSRRAPVLQPVLPVPAGVEAAK	failed
QERLKITALPLYFEGFLLIKRSGYREYEHYWTELRGTTLFFYTDKKSIIYVDKLDIVDLTCLTEQNSTEKNCAKFTLVLPKEEVQLKTENTESGEEWRGFILTVTELSVPQNVSLLPGQVIKLHEVLEREKKRRIE	not failed
MLKKMSPSDWRPFYVSIARNMTNGIRGSIGGRLASWACLFQVTCGVAMKMPTLLSVSLLAALSLPAAAQTAPPQDVPFDGTLKIDVDATDLAHRIFKVNITMPAKPGPMTLLYPQWIPGDHSPTGPIDKLAGLVIKVDGKVVPWKRDQFDVYAFKVDVPQGATELTAEFKFLSPQAGNQGRVMMTPEMLNLQWNTTALYPAGYVVRNIKVQASVTLPAGWSYATALETDRRVGDTVSFKPIDFDDLVDSPMFAGKYYKRVELSTGKQPVYLNVFADEAKSLEAKPEQIKAHAALVQQMDKLYGARHFDHYEFLLALTKKLGGIGLEHHRSSENSGPPNYFTEWDKSWTMRDLLAHEFNHSWNGKYRRGADLSTPNFNVPMGDSLLWLYEGQTQFWGEVLAARSGLWTQDQARDMLAGVAATYERGRPGMTWRTLQDTTNDPTMSMRRSKPYRSYQMSEDYYSGAQMMWLEVDSKLRALTNNKRSIDDFAKAFFGMKNGDWDVNPYTFDDIVSTLNGVAAYDWASLLRERMDGHGSLNGGIEANGWKLVYNDEPNLAIKTYESNKNDVSLTYSLGLSLEGSGEVSEVLWDSPAFNAGIINGNSIVAVNGRAFSADVIKDAIKAAKGTAAPIELLVKRGDRYETVRIDYHGGLLYPHLERIAGKPDRLGELYKAR	failed
DVTERRRAREALQESEARMKGIASNVPGMVFRLERPRAGAFSDFAYISEGSEALVGYSARELIESGRGIRGLVHPDDRERYWSSQMAALDENRDWHWQGRILTRQGELRWADIKASARCFEDGRAVWDGVVWD	failed
MAESGVSVGSESLQLYEAQFFGFTPETCTLRVRDAFRDSLNHILVAVESVFVKRLCPGRDPPAELRLTARESTQKLRQFLQERFEIMFQRMKGMLIDRMLSIPQNVLLPEDQMHQKYPEGKEELTKLQESIAKLLQAYEAEVCSKQALLAELEEQKETQKQLDEVLRWIEELRVSWRREGMGNVQDSVRHMIETVGQLQDVVGKINKQNSALDEV	failed
MISNEHINTQNFWYQLVEKMAIGVLVINNEGQILYANDYAVQLFGAIRTELIGTNFLYPMAADETQEVEILKSSNEILTAHMTVRKSIWENRQVWIISLFDIT	failed
MGTGEKTLKSFQLHRKQSVKVKDVPKGCLAIKVGSQGEEQQRFIVPVLYFNHPLFMQLLKEAEDEYGFDQKGTITIPCHVEEFRYVQALIDGERSVYNGNNHHHRHGGRDQYHHLVGCFRA	failed
MDVLRKQEILPQLPKLDKYERKSSCGNTWQGSLSETESWREKLRYLTDYRLERGRFDKDTDFLSTFQPKQNEVQRNNISFEFDSDKSSRKTDFPGILTERPVLLRTNQEPDVYGARLRELSAANAEGERNVFHEDKTSSSQSKLPSFEIFSAIGQKEDIPGYQGGCLRGETVLKTAAVASPQIADRNSRVSFHDGGILQPINSPTGFSQPRNDNNSYKTSSSEENLYSIRQLPWSEYARTRNYDCVEPSLGVSISDEQRRFGENALCMSVSQPMYEEPHPLVTLRSTEGLTQEQKQLRR	failed
MQFKNTPQRYGVVSAALHWLTALVVYGMFALGLWIVTLSYYDGWYHQAPEIHKSIGILLMMALIVRIIWRLYSPPPVALTSYSRLTRASAAAGHLLLYLLLFAIIISGYLISTADGKPISVFSWFEIPATLTDAGAQADIAGTLHLWFAWSLVIISLSHGVMALKHHFIDKDDTLKRMTGMSSSDYGAQK	failed
MDIKNSEYRFSPLVIGLHWLTVILIIAVYASMELRGLAPKGALRDAMKSLHYLLGLSVLVIVVIRIGVRIQAGVKPAIQPPMPRWQATLADGMHYALYSFMLAMPLLGWLTLSAAGKPIVLFGLPVPSLIGTDVALSRQLKDVHEALATLGYVLIGLHAMAALLHHYVMRDNTVVRMLPGRRP	not failed
MSRVSLPHDAKAGPTKPEVRAVLASKLALTGSDHFAEVGSCTGAVTITAARRAGRVTALERKGNRLDVTRKNLAANDVDADVELREAEAPEGLPDDADVLFLGGSRNYEAILDHAVETGVDRIVMNVSRLEVAGAATEAFRERDILEEVVQFQVSHGYELAGATSFNSENPVYMLVGSASEDVAADGGSPTETEATDGGQR	failed
MAQRSILVGQIWHEGHSFNPILTREKDFLFLRGEAVLEEARASSTALSGIVKTAEALGYRCVPSISARARPGGAIEQKVFDNIVDEFVQAARMQDFDAICLDLHGATLAEHTLDTEGYLLSRLREVVGNDIMISLALDLHAYLTPQMVEQATIITSFRTTPHADIEETGVRAMTLLDSLSNETRPPRAIYSLIPFLTRGNDETWSGPLAEIGAAADRWRARSDVVDLSIFNVHPFLDVPGYGQVVLAYDNGSGAAIDACRDLSDMLWKARDEFQEQLMSVDKALEIARTSRQLLALGDQGDRVMGAGPGDSPEIARVALEHFPGLKVAVPVYDPQAVRTAREAGENATVRMAVGGAFTHSVAPLERDWTVRKLCRARFTNIGPYMAGTEADFGDAAVLTCDAVTVIVTTMAPNVHDPAFYEAVGVPLASQQAVVARAANHYKLSFADIARTITVDTPGLTAFKPHQFPFTQARPFYPLDIVQWSFAPLECNKVG	not failed

From a protein production outcome set (Wang et al. 2014)
